In publication PMC5992148, “Molecular principles underlying dual RNA specificity in the Drosophila SNF protein”:

How the values were obtained:
[1] = target: T1, dSNF1-101 (RRM1) (UniProt P43332 1-101); experiment: filter binding; without dU2A'; ITC: 150 mM KCl, 1 mM MgCl2, 20 mM HEPES-NaOH pH 7.5, 5% glycerol, 10 C; NMR: 50 mM KCl, 20 mM sodium cacodylate pH 6.5, 2 mM EDTA, 23 C; filter binding: KCl varied, other conditions not stated; details: protein: recombinant; tags: none stated; label: 32P internal; hairpin
T1 sequence: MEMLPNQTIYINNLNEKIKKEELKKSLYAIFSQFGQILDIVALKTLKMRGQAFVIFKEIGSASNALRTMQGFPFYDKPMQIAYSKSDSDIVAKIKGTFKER

[2] = target: T1, dSNF1-101 (RRM1); experiment: NMR chemical shift perturbation; 300 uM protein, 700 uM RNA; ITC: 150 mM KCl, 1 mM MgCl2, 20 mM HEPES-NaOH pH 7.5, 5% glycerol, 10 C; NMR: 50 mM KCl, 20 mM sodium cacodylate pH 6.5, 2 mM EDTA, 23 C; filter binding: KCl varied, other conditions not stated; details: protein: recombinant; tags: none stated; hairpin
[3] = target: Drosophila U2A′ (dU2A′), triple cysteine variant, produced apart from dSNF (Drosophila melanogaster) (UniProt Q9V4Q8); experiment: ITC; dU2A′ as the sample (2.5 µM), dSNF^1-101 as titrant (25 µM); 22 °C; 50 mM KCl, 100 mM arginine, 10 mM sodium cacodylate, pH 6.5 (methods) or pH 7 (results)
[4] = target: T2, dSNF1-96 (RRM1) (Drosophila melanogaster, UniProt P43332 1-96); experiment: crystal structure; 2.0 A; ITC: 150 mM KCl, 1 mM MgCl2, 20 mM HEPES-NaOH pH 7.5, 5% glycerol, 10 C; NMR: 50 mM KCl, 20 mM sodium cacodylate pH 6.5, 2 mM EDTA, 23 C; filter binding: KCl varied, other conditions not stated; details: protein: recombinant; tags: N-terminal His6, TEV-cleaved; hairpin, blunt, 10-nt loop
T2 sequence: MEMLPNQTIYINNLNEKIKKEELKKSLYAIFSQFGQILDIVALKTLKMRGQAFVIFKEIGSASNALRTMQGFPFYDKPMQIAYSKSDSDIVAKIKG

[5] = target: T2, dSNF1-96 (RRM1); experiment: ITC; 1 mM Mg2+, 10 C; n 0.894; ITC: 150 mM KCl, 1 mM MgCl2, 20 mM HEPES-NaOH pH 7.5, 5% glycerol, 10 C; NMR: 50 mM KCl, 20 mM sodium cacodylate pH 6.5, 2 mM EDTA, 23 C; filter binding: KCl varied, other conditions not stated; details: protein: recombinant; tags: N-terminal His6, TEV-cleaved; hairpin, 10-nt loop, 9-bp blunt stem
[6] = target: T2, dSNF1-96 (RRM1); experiment: ITC; 1 mM Mg2+, 10 C; n 0.781; ITC: 150 mM KCl, 1 mM MgCl2, 20 mM HEPES-NaOH pH 7.5, 5% glycerol, 10 C; NMR: 50 mM KCl, 20 mM sodium cacodylate pH 6.5, 2 mM EDTA, 23 C; filter binding: KCl varied, other conditions not stated; details: protein: recombinant; tags: N-terminal His6, TEV-cleaved; hairpin, 11-nt loop, U:G closing pair, blunt

With GGCCGGUAUUGCACUACCGCCGGGUCC (structured_RNA) [dU2SLIV G13C] the binding signal [1] was 16 fold higher affinity than wt N6.

GGCCGGCAUUGCACCACGCGCCGGGUCC (structured_RNA) [dU1SLII (T7, NMR)]: binds [2].

B1: Drosophila melanogaster SNF RRM1, residues 1-101 (dSNF^1-101) (domain or fragment)
chain: T1 sequence
With B1 the Kd [3] was 4.2 nM and the dH [3] was -241 kcal/mol.

GGCCGCAUUGCACCUCGCGGCC (structured_RNA) [dU1SLII 22-mer (crystal)]: binds [4].

For CCAGGACGCAUUGCACCUCGCGUCCUGG (structured_RNA) [dU1SLII (ITC)], the Kd [5] was 34 nM.

GGCCGGUAUUACAGUACCGCCGGGUCC (structured_RNA) [dU2SLIV G10A] was tested, and the binding signal [1] was 1000 fold lower affinity than wt N6.

For GGCCGGUAUUGCAAUACCGCCGGGUCC (structured_RNA) [dU2SLIV G13A], the binding signal [1] was 200 fold lower affinity than wt N6.

Work on CCAGGACGUAUUGCAGUACCGCGUCCUGG (structured_RNA) [dU2SLIV (ITC)] yielded a Kd [6] of 782 nM.
